Assay results reported in US20230212319A1, “NOVEL ANTIGEN BINDING DOMAINS AND SYNTHETIC ANTIGEN RECEPTORS INCORPORATING THE SAME” (University of Southern California, priority 2020, published 2023).

B1: 22294 (protein)
chain: MALPVTALLLPLALLLHAARPQLQLQESGPGLVKPSETLSLTCTVSGDSISSGDYYWGWIRQPPGKGLEWIGHIYYSGVTYYNPSLKSRVTISVDTSRNQFSLKLSSVTAADTAVYYCTREDSSNWRSRGQGTLVTVSSLEGSIPEDTFFPSPESSCDVKLVEKSFETDTNLNFQNLSVIGFRILLLKVAGFNLLMTLRLWSSRAKRSGSGVKQTLNFDLLKLAGDVESNPGPTSATMDWIWRILFLVGAATGAHSEFMDPDLEIRAAFLRQRNTALRTEVAELEQEVQRLENEVSQYETRYGPLGGGKTRGSGRADCGFTSESYQQGVLSATILYEILLGKATLYAVLVSALVLMAMVKRKDSRGRAKRSGSGATNFSLLKQAGDVEENPGPSRGHMTEYKPTVRLATRDDVPRAVRTLAAAFADYPATRHTVDPDRHIERVTELQELFLTRVGLDIGKVWVADDGAAVAVWTTPESVEAGAVFAEIGPRMAELSGSRLAAQQQMEGLLAPHRPKEPAWFLATVGVSPDHQGKGLGSAVVLPGVEAAERAGVPAFLETSAPRNLPFYERLGFTVTADVEVPEGPRTWCMTRKPGA
B2: SEQ ID NO: 22287: NKG2D-YA-G4Sx3-NKG2D-YA domain attached to the hu-mROO5-1 vH fragment of an Ab-TCR via a G4S linker (protein)
chain: MALPVTALLLPLALLLHAARPACEVQLLESGGGLIQPGGSLRLSCAASGFTFSSHAMTWVRQAPGKGLEWVSAISGSGDYTHYADSVKGRFTISRDNSKNTVYLQMNSLRAEDSAVYYCAKDEDGGSLLGHRGQGTLVTVSSGTGGGGSGGGGSGGGGSEFDIQMTQSPSSLSASVGDRVTITCKASDHINNWLAWYQQKPGQAPKLLIYGATTLETGVPSRFSGSGSGTDYTLTISSLQPEDFATYYCQQSWNTPWTFGQGTKLEIKRLEGQPKANPTVTLFPPSSEELQANKATLVCLISDFYPGAVTVAWKADGSPVKAGVETTKPSKQSNNKYAASSYLSLTPEQWKSHRSYSCQVTHEGSTVEKTVAPTECSGRADCGFTSESYQQGVLSATILYEILLGKATLYAVLVSALVLMAMVKRKDSRGRAKRSGSGATNFSLLKQAGDVEENPGPTSTMDWIWRILFLVGAATGAHSLFNQEVQIPLTESYCGPCPKNWICYKNNCYQFFDESKNWYESQASCMSQNASLLKVYSKEDQDLLKLVKSAHWMGLVHIPTNGSWQWEDGSILSPNLLTIIEMQKGDCALYASSFKGYIENCSTPNTYICMQRTVSGGGGSGGGGSGGGGDLFNQEVQIPLTESYCGPCPKNWICYKNNCYQFFDESKNWYESQASCMSQNASLLKVYSKEDQDLLKLVKSAHWMGLVHIPTNGSWQWEDGSILSPNLLTIIEMQKGDCALYASSFKGYIENCSTPNTYICMQRTVGSGGGGSGGGGSGGGGSFEQVQLQQPGAELVKPGASVKMSCKASGYAFSSYWINWMKQKPGQGLEWIGQIYPGDGDTNYNGKFKGRATLTADTSSSTAYMQLSSLTSEDSAVYFCARSITTVVGCAMDYWGQGTSVTVSSTRASTKGPSVFPLAPSSKSTSGGTAALGCLVKDYFPEPVTVSWNSGALTSGVHTFPAVLQSSGLYSLSSVVTVPSSSLGTQTYICNVNHKPSNTKVDKRVEPKSCIPEDTFFPSPESSCDVKLVEKSFETDTNLNFQNLSVIGFRILLLKVAGFNLLMTLRLWSSRAKRSGSGVKQTLNFDLLKLAGDVESNPGPSRGHMTEYKPTVRLATRDDVPRAVRTLAAAFADYPATRHTVDPDRHIERVTELQELFLTRVGLDIGKVWVADDGAAVAVWTTPESVEAGAVFAEIGPRMAELSGSRLAAQQQMEGLLAPHRPKEPAWFLATVGVSPDHQGKGLGSAVVLPGVEAAERAGVPAFLETSAPRNLPFYERLGFTVTADVEVPEGPRTWCMTRKPGA
B3: SEQ ID NO: 22286: engineered NKG2D-YA domain attached to the N-terminus of the IgCL fragment of a SAR with Ab-TCR backbone (protein)
chain: MALPVTALLLPLALLLHAARPACLFNQEVQIPLTESYCGPCPKNWICYKNNCYQFFDESKNWYESQASCMSQNASLLKVYSKEDQDLLKLVKSAHWMGLVHIPTNGSWQWEDGSILSPNLLTIIEMQKGDCALYASSFKGYIENCSTPNTYICMQRTVLEGQPKANPTVTLFPPSSEELQANKATLVCLISDFYPGAVTVAWKADGSPVKAGVETTKPSKQSNNKYAASSYLSLTPEQWKSHRSYSCQVTHEGSTVEKTVAPTECSPIKTDVITMDPKDNCSKDANDTLLLQLTNTSAYYMYLLLLLKSVVYFAIITCCLLRRTAFCCNGEKSRAKRSGSGATNFSLLKQAGDVEENPGPTSATMDWIWRILFLVGAATGAHSGPQVQLQESGGGLAQAGGSLRLSCAASGRTFSMGWFRQAPGKEREFVAAITYSGGSPYYASSVRGRFTISRDNAKNTVYLQMNSLKPEDTAVYYCAANPTYGSDWNAENWGQGTQVTVSSGSGGGGSGGGGSGGGGSFEQVQLQQPGAELVKPGASVKMSCKASGYAFSSYWINWMKQKPGQGLEWIGQIYPGDGDTNYNGKFKGRATLTADTSSSTAYMQLSSLTSEDSAVYFCARSITTVVGCAMDYWGQGTSVTVSSTRASTKGPSVFPLAPSSKSTSGGTAALGCLVKDYFPEPVTVSWNSGALTSGVHTFPAVLQSSGLYSLSSVVTVPSSSLGTQTYICNVNHKPSNTKVDKRVEPKSCEVKTDSTDHVKPKETENTKQPSKSCHKPKAIVHTEKVNMMSLTVLGLRMLFAKTVAVNFLLTAKLFFLRAKRSGSGVKQTLNFDLLKLAGDVESNPGPSRGHMTEYKPTVRLATRDDVPRAVRTLAAAFADYPATRHTVDPDRHIERVTELQELFLTRVGLDIGKVWVADDGAAVAVWTTPESVEAGAVFAEIGPRMAELSGSRLAAQQQMEGLLAPHRPKEPAWFLATVGVSPDHQGKGLGSAVVLPGVEAAERAGVPAFLETSAPRNLPFYERLGFTVTADVEVPEGPRTWCMTRKPGA
B4: CD8SP-CD22-FHVH-24-PSMA71v2-chVH-Myc-CD8TM-BBZ-T2A-PAC (protein)
chain: MALPVTALLLPLALLLHAARPQLQLQESGPGLVKPSETLSLTCTVSGDSISSGDYYWGWIRQPPGKGLEWIGHIYYSGVTYYNPSLKSRVTISVDTSRNQFSLKLSSVTAADTAVYYCTREDSSNWRSRGQGTLVTVSSLESGGGGSFEVQLVESGGGVVQPGRSLRLSCAASGFSFSGYGMHWVRQAPGKGLEWVAYISYDGSNKYYADSVKGRFTISRDNSKNTLYLQMNSLRAEDTAVYYCAKDPAWGLRLGESSSYDFDIWGQGTMVTVSSTREQKLISEEDLAKPTTTPAPRPPTPAPTIASQPLSLRPEACRPAAGGAVHTRGLDFACDIYIWAPLAGTCGVLLLSLVITLYCKRGRKKLLYIFKQPFMRPVQTTQEEDGCSCRFPEEEEGGCELRVKFSRSADAPAYQQGQNQLYNELNLGRREEYDVLDKRRGRDPEMGGKPRRKNPQEGLYNELQKDKMAEAYSEIGMKGERRRGKGHDGLYQGLSTATKDTYDALHMQALPPRSSGSGEGRGSLLTCGDVEENPGPHMTEYKPTVRLATRDDVPRAVRTLAAAFADYPATRHTVDPDRHIERVTELQELFLTRVGLDIGKVWVADDGAAVAVWTTPESVEAGAVFAEIGPRMAELSGSRLAAQQQMEGLLAPHRPKEPAWFLATVGVSPDHQGKGLGSAVVLPGVEAAERAGVPAFLETSAPRNLPFYERLGFTVTADVEVPEGPRTWCMTRKPGA

Experiments:
[1] = test system: LNCaP cells; test: JNG assay, co-culture with LNCaP cells; format: cell-based; settings: for GFP induction: LNCaP cells, only in the presence of SAR-adaptor PSMA-USC76-chVH-G4S-ULBP2-S3 (SEQ ID NO: 23114)
Procedure: Cellular supernatant is collected and assayed for the induction of cytokines (e.g., IL2).
JNG (Jurkat cells expressing EGFP under an NFAT promoter) were infected with lentiviral vectors encoding different single chain and multi-chain SARs by spinfection in the presence of 8 µg/ml of Polybrene® (Sigma, Catalog no. H9268). The Jurkat-NFAT-GFP cells are engineered in such a way that the IL-2 promoter, which carries NFAT binding sites, is cloned upstream of the GFP gene. These cells have been used to study signaling via TCR and CAR. The different SARs were stably expressed in Jurkat NFAT-GFP cells by lentiviral mediated gene transfer, followed by selection with puromycin or blasticidin. No drug selection was used in case the construct lacked an antibiotic resistance gene. The SAR-expressing Jurkat-NFAT-GFP cells were cocultured with the target cells at E:T ratio of approximately 1:2 for approximately 4 hours to 18 hours. When the interaction between SIRs and their target antigen results in activation of the NFAT pathway, GFP expression is induced. […] GFP expression was monitored by FACS analysis. The Jurkat-NFAT-GFP (parental) cells were used as control. The structure of different constructs can be determined based on their names. For example, the construct CD8SP-CD19-hu-mROO5-1-vL-[hTCRa-C SDVP]-F-F2A-Spe-IgHSP-Apa-CD20-vHH-2HCD25-G4S-CDl9-hu-mROO5-1-vH-Mlu-[hTCRb-KACIAH]-F-P2A-PAC has the following modules from 5′ to 3′ direction: a CD8 signal peptide (CD8SP), the CD19 targeting hu-mROO5-1 vL fragment (CD19-hu-mROO5-1), Xho1 cloning site, human TCRa constant chain containing CSDVP mutations (hTCRa-CSDVP), Furine cleavage site (F), F2A ribosomal skip sequence (F2A), SpeI site, human IgH signal peptide (IgHSP), Apa I restriction enzyme site, camelid CD20-2HCD25-VHH module targeting CD20, BamHI restriction enzyme site, Glycinex4-serine linker (G4S), BstI restriction enzyme site, CD19-hu-mROO5-1-vH fragment targeting CD19, Mlu I restriction enzyme site, human TCRb constant chain containing KACIAH mutations ([hTCRb-KACIAH]), Furine cleavage site (F), P2A ribosomal skip sequence and Puromycin resistance gene (PAC). The sequence of the other constructs in the table can be similarly determined from their names and by referring to the different Tables of this disclosure that provide the names and SEQ ID NO of the different modules. Alternatively, the composition and modular architecture of the different SAR constructs can be determined from their sequences by bioinformatics tools, including using nucleic acid and amino acids homology searches. A SAR is considered positive in the assay in case the SAR expressing Jurkat-NFAT-GFP cells show greater % GFP positive cells when cultured with the target cell line as compared to parental Jurkat-NFAT-GFP cells. The signs +/-, +, 2+ etc. after the name of the cell lines indicate the relative degree of positivity on the Jurkat-NFAT-GFP assay as measured by the % GFP positive cells after culture of the SAR expressing Jurkat-NFAT-GFP cells with that cell line above the % GFP cells observed in parental Jurkat NFAT-GFP cells serving as controls. In general, the number +/-, +, 2+, 3+, 4+, 5+ refer to approximately 5%, 10%, 20%, 30%, 40% and 50% GFP positive cells. The % of GFP induction in the above assay is dependent not only the relative strength of the SAR but also, among other factors, on the relative level of expression of the SAR in the JNG cells and the relative level of expression of the target antigen in the target cell line. To control for the difference in gene transduction efficiency of the different SAR constructs, the experiment was conducted with JNG cells transduced with SAR constructs co-expressing a drug resistance gene (e.g., puromycin or PAC) followed by drug selection to generate a stable population of SAR-expressing cells. […]

[2] = test system: RAJI cells; test: JNG assay, co-culture with RAJI cells; format: cell-based; settings: co-culture with RAJI cells
Method in brief: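 Read-out is NFAT-driven GFP measured by flow cytometry after ~4–18 h co-culture of SAR-expressing JNG cells with target cells (E:T about 1:2). SARs were introduced by lentiviral spinfection and selected with puromycin or blasticidin when possible; scores (+/- to 5+ ≈ 5–50% GFP+) are relative to parental JNG cells.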

Molecule	NFAT-GFP ASSAY: LNCaP with PSMA-USC76-chVH-EZIP ([1]; LNCaP in presence of SAR adaptor PSMA-USC76-chVH-EZIP)	GFP induction / activity [2]	GFP induction [1]	GFP induction (relative degree of positivity) ([1]; PSMA-expressing LNCaP cells)
B1	+1	–	–	–
B2	–	robust induction of GFP	induction of GFP	–
B3	–	robust induction of GFP	induction of GFP	–
B4	–	able to effectively induce GFP	–	+5.5
